Assays:
CD28 (human) [1] = target: CD28 (human) (UniProt P10747); test: flow cytometry, Jurkat cells (CD28)
human CTLA-4 (human) [2] = target: human CTLA-4 (human) (UniProt P16410); test: flow cytometry, CHO cells stably expressing CTLA4
PD-L1 (human) [3] = target: PD-L1 (human) (UniProt Q9NZQ7); test: flow cytometry, CHO cells stably expressing PD-L1
[4] = target: human CTLA-4 (huCTLA4), on stably transduced CHO cells (human) (UniProt P16410); test: flow cytometry on CHO cells stably expressing huCTLA4, 33.3 nM Fc fusion, PE anti-human Fc
human CTLA-4 (huCTLA4), on stably transduced CHO cells (human), sequence (P16410 36-223): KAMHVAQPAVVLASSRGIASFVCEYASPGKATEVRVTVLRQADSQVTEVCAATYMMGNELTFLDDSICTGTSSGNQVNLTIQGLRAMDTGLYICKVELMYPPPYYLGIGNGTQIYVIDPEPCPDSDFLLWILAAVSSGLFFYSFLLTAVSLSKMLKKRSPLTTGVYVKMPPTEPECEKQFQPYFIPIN

[5] = target: human PD-L1 (huPD-L1), on stably transduced CHO cells (human) (UniProt Q9NZQ7); test: flow cytometry on CHO cells stably expressing huPD-L1, 33.3 nM Fc fusion, PE anti-human Fc
PD-L1 (human) [6] = target: PD-L1 (human) (UniProt Q9NZQ7); test: flow cytometry, CHO cells expressing huPD-L1
human CTLA-4 (human) [7] = target: human CTLA-4 (human) (UniProt P16410); test: flow cytometry, CHO cells expressing huCTLA-4
CD28 (human) [8] = target: CD28 (human) (UniProt P10747); test: flow cytometry, Jurkat/IL2 reporter cells (CD28)
[9] = target: CD28, endogenously expressed on Jurkat/IL2 reporter cells (human) (UniProt P10747); test: flow cytometry on Jurkat/IL2 reporter cells (endogenous CD28), 33.3 nM Fc fusion, PE anti-human Fc
human CTLA-4 (human) [10] = target: human CTLA-4 (human) (UniProt P16410); test: flow cytometry, CHO cells expressing huCTLA4
PD-L1 (human) [11] = target: PD-L1 (human) (UniProt Q9NZQ7); test: flow cytometry, CHO cells expressing huPD-L1; remark: listed apart in the source
PD-L1 (human) [12] = target: PD-L1 (human) (UniProt Q9NZQ7); test: flow cytometry, Expi293F cells transfected with PD-L1
CD28 (human) [13] = target: CD28 (human) (UniProt P10747); test: flow cytometry, Jurkat cells (CD28); remark: listed apart in the source
human CTLA-4 (human) [14] = target: human CTLA-4 (human) (UniProt P16410); test: flow cytometry, CHO cells stably expressing CTLA4; remark: listed apart in the source
PD-L1 (human) [15] = target: PD-L1 (human) (UniProt Q9NZQ7); test: flow cytometry, CHO cells stably expressing PD-L1; remark: listed apart in the source
PD-L1 (human) [16] = target: PD-L1 (human) (UniProt Q9NZQ7); test: flow cytometry, MFI on PD-L1 cells over MFI on CD28 cells

human CTLA-4 (human), sequence (P16410 36-223): as above
PD-L1 (human), sequence (Q9NZQ7 19-290): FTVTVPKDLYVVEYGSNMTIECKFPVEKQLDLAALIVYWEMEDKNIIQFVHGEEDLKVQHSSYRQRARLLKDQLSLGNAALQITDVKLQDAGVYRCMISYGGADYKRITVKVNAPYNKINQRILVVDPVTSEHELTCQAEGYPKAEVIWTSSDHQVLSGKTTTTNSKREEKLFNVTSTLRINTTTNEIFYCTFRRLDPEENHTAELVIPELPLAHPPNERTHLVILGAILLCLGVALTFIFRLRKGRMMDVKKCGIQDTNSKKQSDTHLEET

CD80 IgV-Fc H18Y/E35D/M47L/V68M/E95V/L97Q (Fc fusion)
MFI at 33.3 nM (CD28 (human) [1]): 2600 MFI
MFI at 33.3 nM (human CTLA-4 (human) [2]): 18000 MFI
MFI at 33.3 nM (PD-L1 (human) [3]): 9630 MFI

variant CD80 IgV-Fc E35D/M47L/A71G (Fc fusion)
MFI at 33.3 nM [4]: 20600 MFI
MFI at 33.3 nM [5]: 6640 MFI

variant CD80 IgV-Fc V68M/L85Q (Fc fusion)
MFI at 33.3 nM (PD-L1 (human) [6]): 347 MFI
MFI at 33.3 nM (human CTLA-4 (human) [7]): 3290 MFI
MFI at 33.3 nM (CD28 (human) [8]): 91.7 MFI

WT CD80 ECD-Fc H22.6 (Fc fusion)
MFI at 33.3 nM [5]: 46.3 MFI
MFI at 33.3 nM [9]: 43 MFI

variant CD80 IgV-Fc E35D/M47V/T62A/A71D/K93E (Fc fusion)
MFI at 33.3 nM (human CTLA-4 (human) [10]): 226000 MFI
MFI at 33.3 nM (PD-L1 (human) [11]): 693 MFI

variant CD80 IgV-Fc L85Q (Fc fusion)
MFI at 33.3 nM (PD-L1 (human) [6]): 97 MFI
MFI at 33.3 nM (human CTLA-4 (human) [7]): 3000 MFI
MFI at 33.3 nM (CD28 (human) [8]): 35 MFI

variant CD80 IgV-Fc M47L/V68M/L85Q (Fc fusion)
MFI at 33.3 nM (PD-L1 (human) [6]): 4040 MFI
MFI at 33.3 nM (human CTLA-4 (human) [7]): 11100 MFI
MFI at 33.3 nM (CD28 (human) [8]): 60.9 MFI

variant CD80 IgV-Fc E35D/M47L/V68M/L85Q (Fc fusion)
MFI at 33.3 nM (PD-L1 (human) [6]): 15300 MFI
MFI at 33.3 nM (human CTLA-4 (human) [7]): 28100 MFI
MFI at 33.3 nM (CD28 (human) [8]): 159 MFI

variant CD80 IgV-Fc N48K/V68M (Fc fusion)
MFI at 33.3 nM (PD-L1 (human) [6]): 754 MFI
MFI at 33.3 nM (human CTLA-4 (human) [7]): 2340 MFI
MFI at 33.3 nM (CD28 (human) [8]): 118 MFI

variant CD80 IgV-Fc N48K (Fc fusion)
MFI at 33.3 nM (PD-L1 (human) [6]): 481 MFI
MFI at 33.3 nM (human CTLA-4 (human) [7]): 4950 MFI
MFI at 33.3 nM (CD28 (human) [8]): 60.1 MFI

variant CD80 IgV-Fc M47V/K89N (Fc fusion)
MFI at 33.3 nM (PD-L1 (human) [6]): 622 MFI
MFI at 33.3 nM (human CTLA-4 (human) [7]): 32400 MFI
MFI at 33.3 nM (CD28 (human) [8]): 197 MFI

CD80 Y31H/T41G/M43L/L70Q/A91G/I118V/T120S/I126V/T130A ECD-Fc (Fc fusion)
MFI (PD-L1 (human) [12]): 6 MFI

variant CD80 IgV-Fc I30V/E35D/M47V/A71G/A91V (Fc fusion)
MFI at 33.3 nM (human CTLA-4 (human) [10]): 205000 MFI
MFI at 33.3 nM (PD-L1 (human) [11]): 43900 MFI

variant CD80 IgV-Fc H18Y/E35D/M47L/V68M/A71G (Fc fusion)
Fold change to WT CD80 (CD28 (human) [13]): 21.1 fold
MFI at 33.3 nM (CD28 (human) [13]): 928 MFI
Fold change to WT CD80 (human CTLA-4 (human) [14]): 17.4 fold
MFI at 33.3 nM (human CTLA-4 (human) [14]): 23700 MFI
Fold change to WT CD80 (PD-L1 (human) [15]): 697 fold
MFI at 33.3 nM (PD-L1 (human) [15]): 30400 MFI
Ratio of PDL1:CD28 (PD-L1 (human) [16]): 32.7

variant CD80 IgV-Fc E35D/M47V/T62S/L85Q (Fc fusion)
MFI at 33.3 nM [4]: 31200 MFI
MFI at 33.3 nM [9]: 99.4 MFI

CD80 L70Q/A91G/N144D ECD-Fc (Fc fusion)
MFI (PD-L1 (human) [12]): 6 MFI

variant CD80 IgV-Fc V22A/E35D/M47L/A71G (Fc fusion)
MFI at 33.3 nM [4]: 21900 MFI
MFI at 33.3 nM [5]: 8170 MFI
MFI at 33.3 nM [9]: 990 MFI

variant CD80 IgV-Fc E35D/M43I/D46E/A71G/L85M (Fc fusion)
MFI at 33.3 nM [4]: 26900 MFI
MFI at 33.3 nM [5]: 7140 MFI

variant CD80 IgV-Fc E35D/M43I/M47L/L85M (Fc fusion)
MFI at 33.3 nM [4]: 24600 MFI
MFI at 33.3 nM [5]: 4880 MFI

variant CD80 IgV-Fc H18Y/E35D (Fc fusion)
MFI at 33.3 nM [4]: 26300 MFI
MFI at 33.3 nM [5]: 3530 MFI
MFI at 33.3 nM [9]: 479 MFI

variant CD80 IgV-Fc H18Y/E35D/M47V/N48K (Fc fusion)
MFI at 33.3 nM [5]: 6460 MFI
MFI at 33.3 nM [9]: 841 MFI

variant CD80 IgV-Fc M43I/M47L/A71G (Fc fusion)
MFI at 33.3 nM [4]: 23300 MFI
MFI at 33.3 nM [5]: 7760 MFI
MFI at 33.3 nM [9]: 1000 MFI

variant CD80 IgV-Fc H18Y/A26E/M47L/V68M/A71G (Fc fusion)
Fold change to WT CD80 (CD28 (human) [13]): 12.4 fold
MFI at 33.3 nM (CD28 (human) [13]): 544 MFI
Fold change to WT CD80 (human CTLA-4 (human) [14]): 16 fold
MFI at 33.3 nM (human CTLA-4 (human) [14]): 21700 MFI
Fold change to WT CD80 (PD-L1 (human) [15]): 682 fold
MFI at 33.3 nM (PD-L1 (human) [15]): 29700 MFI
Ratio of PDL1:CD28 (PD-L1 (human) [16]): 54.7

CD80 IgV-Fc H18Y/E35D/M47L/Y53F/V68M/A71G/K93R/E95V (Fc fusion)
MFI at 33.3 nM (CD28 (human) [1]): 2190 MFI
MFI at 33.3 nM (human CTLA-4 (human) [2]): 19800 MFI
MFI at 33.3 nM (PD-L1 (human) [3]): 9340 MFI
